Test results from patent publication US6548282B2, “Phytase and gene encoding said phytase” (priority 1996, dated 2003).

How the values were obtained:
[1] = test system: wheat bran-derived phytase; settings: Agr. Biol. Chem., 26, 794-803 (1962); read-out: Michaelis constant (Km); cited from earlier work
[2] = test system: Aspergillus oryzae-derived phytase; settings: read-out: Michaelis constant (Km); cited from earlier work
[3] = test system: Bacillus subtilis-derived phytase; settings: read-out: Michaelis constant (Km); cited from earlier work
[4] = test system: Aspergillus ficcum-derived phytase; settings: WO 91/05053; read-out: Michaelis constant (Km); cited from earlier work
[5] = test system: rice bran-derived phytase; settings: Agr. Biol. Chem., 53, 1475-1483; read-out: Michaelis constant (Km); cited from earlier work
[6] = test system: Bacillus natto-derived phytase; settings: read-out: Michaelis constant (Km); cited from earlier work
[7] = test system: Escherichia coli-derived phytase; settings: read-out: Michaelis constant (Km); cited from earlier work
[8] = test system: maize (Zea mays)-derived phytase; settings: read-out: Michaelis constant (Km); cited from earlier work
[9] = substrate: O=P(O)(O)O[C@H]1[C@H](OP(=O)(O)O)[C@@H](OP(=O)(O)O)[C@H](OP(=O)(O)O)[C@@H](OP(=O)(O)O)[C@H]1OP(=O)(O)O; experiment: Km of novel phytase from Aspergillus niger SK57 (standard assay, Lineweaver-Burk plot); type: biochemical; settings: other: sodium phytate 0.00625 to 1.25 mM, pH 5.5, 37° C.
Procedure: (§1) 0.5 ml of 0.2 M acetate buffer, pH 5.5 (sodium acetate) containing 2.5 mM sodium phytate (Sigma) is maintained at 37° C. for 5 minutes, and 0.5 ml of an enzyme solution is added to initiate the reaction. After maintained at 37° C. for 10 minutes, 2 ml of a stop solution of enzyme reaction (i.e., mixture of 1:1:2 10 mM ammonium molybdate, 5 N sulfuric acid and acetone) is added to stop the reaction, and 0.1 ml of 1 M citric acid is further added and mixed. The absorbance of this solution is determined at 380 nm on a spectrophotometer (Hitachi U-2000). One unit of phytase activity is defined as the amount of enzyme allowing to release 1 μmol inorganic phosphorus for 1 minute at pH 5.5 at 37° C.
(§2) The Km value of the novel phytase can be determined by the Lineweaver-Burk plot in which the activity of the novel phytase, as determined by the standard assay, is plotted at varying concentrations of the substrate.
(§3) (1) Km value: The activity was determined according to the standard assay where the substrate concentration was varied in the range of 0.00625 to 1.25 mM. The results were graphted out in Lineweave-Burk plot so that Km values were determined.

[10] = substrate: O=P(O)(O)O[C@H]1[C@H](OP(=O)(O)O)[C@@H](OP(=O)(O)O)[C@H](OP(=O)(O)O)[C@@H](OP(=O)(O)O)[C@H]1OP(=O)(O)O; experiment: Km of novel phytase from transformant Aspergillus oryzae MO-PG3 (standard assay, Lineweaver-Burk plot); type: biochemical; settings: other: sodium phytate 0.00625 to 1.25 mM, pH 5.5, 37° C.
Procedure: as §1, §2, §3

[11] = substrate: O=P(O)(O)O[C@H]1[C@H](OP(=O)(O)O)[C@@H](OP(=O)(O)O)[C@H](OP(=O)(O)O)[C@@H](OP(=O)(O)O)[C@H]1OP(=O)(O)O; experiment: Km of novel phytase from transformant Aspergillus niger MH-PA1 (standard assay, Lineweaver-Burk plot); type: biochemical; settings: other: sodium phytate 0.00625 to 1.25 mM, pH 5.5, 37° C.
Procedure: as §1, §2, §3

[12] = Substrate specificity, standard assay; type: biochemical
Procedure: as §1
(7) Substrate specificity: The activity was determined by the standard assay method wherein the concentration of substrates was adjusted at 1 mM and 10 mM.

[13] = Specific activity of purified phytase, standard assay; type: biochemical; settings: after purification; pH 5.5, 37° C.
Procedure: as §1
Ten g of the crude phytase powder obtained in Example 6-2 was dissolved in 50 ml of acetate buffer A [50 mM acetic acid/50 mM sodium acetate (pH 5.5)] and then desalted through an Ultrafilter (cut off molecular weight 10,000; Sartrius). The resulting enzyme solution was applied to a DIAION HPA-75 (Mitsubishi Corporation) column (5.6 cm×30 cm) previously equilibrated with acetate buffer A. After washed with acetate buffer A, novel phytase was eluted with acetate buffer B [50 mM acetic acid/50 mM sodium acetate (pH 4.8)] containing 0.3 M NaCl. […]

[14] = substrate: O=P(O)(O)O[C@H]1[C@H](OP(=O)(O)O)[C@@H](OP(=O)(O)O)[C@H](OP(=O)(O)O)[C@@H](OP(=O)(O)O)[C@H]1OP(=O)(O)O; experiment: Km of novel phytase from transformant Aspergillus nidulans M-PA1 (standard assay, Lineweaver-Burk plot); type: biochemical; settings: other: sodium phytate 0.00625 to 1.25 mM, pH 5.5, 37° C.
Procedure: as §1, §2, §3

For O=P(O)(O)O[C@H]1[C@H](OP(=O)(O)O)[C@@H](OP(=O)(O)O)[C@H](OP(=O)(O)O)[C@@H](OP(=O)(O)O)[C@H]1OP(=O)(O)O [phytic acid], the Km [1] is given as 570 µM, the Km [2] is given as 330 µM and the Km [3] is given as 150 µM. The Km [4] was 250 µM, the Km [5] was 170 µM and the Km [6] was 500 µM. For the same molecule, the Km [7] was 130 µM and the Km [8] was 117 µM.

B1: novel phytase derived from Aspergillus niger SK57, SEQ ID NO:1 (Aspergillus niger CBS 513.88) (protein)
chain: SRNQSTCDTVDQGYQCFSETSHLWGQYAPFFSLANKSAISPDVPAGCHVTFAQVLSRHGARYPTDSKGKKYSALIEEIQQNATTFEGKYAFLKTYNYSLGADDLTPFGEQELVNSGVKFYQRYESLTRNIVPFIRSSGSSRVIASGNKFIEGFQSTKLKDPRAQPGQSSPKIDVVISEASTSNNTLDPGTCTVFEDSELADDIEANFTATFVPSIRQRLENDLSGVSLTDTEVTYLMDMCSFDTISTSTVDTKLSPFCDLFTHEEWINYDYLQSLNKYYGHGAGNPLGPTQGVGYANELIARLTHSPVHDDTSSNHTLDSNPATFPLNSTLYADFSHDNGIISILFALGLYNGTKPLSSTTAENITQTDGFSSAWTVPFASRMYVEMMQCQSEQEPLVRVLVNDRVVPLHGCPVDALGRCTRDSFVKGLSFARSGGDWGECFA
In the case of B1, the Km [9] is reported as 13 µM.

B2: novel phytase (SK57 gene, pANPHY1) derived from Aspergillus oryzae MO-PG3 (Aspergillus niger CBS 513.88) (protein)
chain: SRNQSTCDTVDQGYQCFSETSHLWGQYAPFFSLANKSAISPDVPAGCHVTFAQVLSRHGARYPTDSKGKKYSALIEEIQQNATTFEGKYAFLKTYNYSLGADDLTPFGEQELVNSGVKFYQRYESLTRNIVPFIRSSGSSRVIASGNKFIEGFQSTKLKDPRAQPGQSSPKIDVVISEASTSNNTLDPGTCTVFEDSELADDIEANFTATFVPSIRQRLENDLSGVSLTDTEVTYLMDMCSFDTISTSTVDTKLSPFCDLFTHEEWINYDYLQSLNKYYGHGAGNPLGPTQGVGYANELIARLTHSPVHDDTSSNHTLDSNPATFPLNSTLYADFSHDNGIISILFALGLYNGTKPLSSTTAENITQTDGFSSAWTVPFASRMYVEMMQCQSEQEPLVRVLVNDRVVPLHGCPVDALGRCTRDSFVKGLSFARSGGDWGECFA
notes: secreted, mature, purified, glycosylated
For B2, the Km [10] was 28 µM.

B3: novel phytase (SK57 gene, pANPHY1) derived from Aspergillus niger MH-PA1 (Aspergillus niger CBS 513.88) (protein)
chain: SRNQSTCDTVDQGYQCFSETSHLWGQYAPFFSLANKSAISPDVPAGCHVTFAQVLSRHGARYPTDSKGKKYSALIEEIQQNATTFEGKYAFLKTYNYSLGADDLTPFGEQELVNSGVKFYQRYESLTRNIVPFIRSSGSSRVIASGNKFIEGFQSTKLKDPRAQPGQSSPKIDVVISEASTSNNTLDPGTCTVFEDSELADDIEANFTATFVPSIRQRLENDLSGVSLTDTEVTYLMDMCSFDTISTSTVDTKLSPFCDLFTHEEWINYDYLQSLNKYYGHGAGNPLGPTQGVGYANELIARLTHSPVHDDTSSNHTLDSNPATFPLNSTLYADFSHDNGIISILFALGLYNGTKPLSSTTAENITQTDGFSSAWTVPFASRMYVEMMQCQSEQEPLVRVLVNDRVVPLHGCPVDALGRCTRDSFVKGLSFARSGGDWGECFA
notes: secreted, mature, purified
Molecule B3 has a Km [11] of 30 µM.

B4: novel phytase from Aspergillus niger SK57: Phytase purified from wheat bran culture of Aspergillus niger SK57 (FERM BP-5473); amino acid sequence SEQ ID NO:1 (protein)
chain: SRNQSTCDTVDQGYQCFSETSHLWGQYAPFFSLANKSAISPDVPAGCHVTFAQVLSRHGARYPTDSKGKKYSALIEEIQQNATTFEGKYAFLKTYNYSLGADDLTPFGEQELVNSGVKFYQRYESLTRNIVPFIRSSGSSRVIASGNKFIEGFQSTKLKDPRAQPGQSSPKIDVVISEASTSNNTLDPGTCTVFEDSELADDIEANFTATFVPSIRQRLENDLSGVSLTDTEVTYLMDMCSFDTISTSTVDTKLSPFCDLFTHEEWINYDYLQSLNKYYGHGAGNPLGPTQGVGYANELIARLTHSPVHDDTSSNHTLDSNPATFPLNSTLYADFSHDNGIISILFALGLYNGTKPLSSTTAENITQTDGFSSAWTVPFASRMYVEMMQCQSEQEPLVRVLVNDRVVPLHGCPVDALGRCTRDSFVKGLSFARSGGDWGECFA
In the case of B4, the “Relative activity (100%)” value ([12]; substrate ATP 1 mM) is reported as 1.6%, the “Relative activity (100%)” value ([12]; substrate ATP 10 mM) is reported as 1.2% and the “Relative activity (100%)” value ([12]; substrate D-glucose-6-phosphate 1 mM) is reported as 0.45%. For the same molecule, the “Relative activity (100%)” value ([12]; substrate D-glucose-6-phosphate 10 mM) was 4.2%, the “Relative activity (100%)” value ([12]; substrate D-myo-inositol 1,4,5-tris-phosphate 1 mM) was 0.71% and the “Relative activity (100%)” value ([12]; substrate D-myo-inositol 1,4,5-tris-phosphate 10 mM) was 5.8%. The “Relative activity (100%)” value ([12]; substrate fructose-6-phosphate 1 mM) was 0.15%, the “Relative activity (100%)” value ([12]; substrate fructose-6-phosphate 10 mM) was 0.93% and the “Relative activity (100%)” value ([12]; substrate glycerophosphoric acid 1 mM) was 0.11%. The “Relative activity (100%)” value ([12]; substrate glycerophosphoric acid 10 mM) was 0.96%, the “Relative activity (100%)” value ([12]; substrate p-nitrophenyl phosphate 1 mM) was 1.9% and the “Relative activity (100%)” value ([12]; substrate p-nitrophenyl phosphate 10 mM) was 10%. The “Relative activity (100%)” value ([12]; substrate phytic acid 1 mM) was 100%, the “substrate specificity (in words)” value ([12]; substrates of Table 1 at 1 mM and 10 mM) was “acted with low specificity on the substrates shown in Table 1, but it had less activity on substrates other than phytic acid” and the specific activity [13] was 158 U/mg.

B5: novel phytase (SK57 gene, pANPHY1) derived from Aspergillus nidulans M-PA1 (Aspergillus niger CBS 513.88) (protein)
chain: SRNQSTCDTVDQGYQCFSETSHLWGQYAPFFSLANKSAISPDVPAGCHVTFAQVLSRHGARYPTDSKGKKYSALIEEIQQNATTFEGKYAFLKTYNYSLGADDLTPFGEQELVNSGVKFYQRYESLTRNIVPFIRSSGSSRVIASGNKFIEGFQSTKLKDPRAQPGQSSPKIDVVISEASTSNNTLDPGTCTVFEDSELADDIEANFTATFVPSIRQRLENDLSGVSLTDTEVTYLMDMCSFDTISTSTVDTKLSPFCDLFTHEEWINYDYLQSLNKYYGHGAGNPLGPTQGVGYANELIARLTHSPVHDDTSSNHTLDSNPATFPLNSTLYADFSHDNGIISILFALGLYNGTKPLSSTTAENITQTDGFSSAWTVPFASRMYVEMMQCQSEQEPLVRVLVNDRVVPLHGCPVDALGRCTRDSFVKGLSFARSGGDWGECFA
notes: as for B2
With B5 the Km [14] was 20 µM.
